Measurements published in article doi:10.1101/2024.04.02.587845.

Columns and labels:
[1] = biological target: GST-YFP-6His-PANT^R20A (Arabidopsis); assay: MST
[2] = biological target: GST-YFP-6His-PANT^WT (PANT domain of Arabidopsis SRFR1) (Arabidopsis); assay: MST

- Kd [1]: 956 µM
- Kd [2]: 395 µM
Substance: synthetic P1 peptide (P1 segment of IDR1 of SRFR1)
